Patent publication US20170267738A1 (published 2017)

How the values were obtained:
[1] = biological target: T1, HEATR5A (peptide HEATR5A-001) peptide on HLA-A*02:01 (human); experiment: cytokine release
T1 peptide: KVLETLVTV

[2] = biological target: T2, CNOT1 (peptide CNOT1-003) peptide on HLA-A*02:01 (human); experiment: cytokine release
T2 peptide: KVLGIVVGV

[3] = biological target: T3, MAGEA4 (MAG-003 A2, alanine at position 2; same residues as SEQ ID NO: 9) peptide on HLA-A*02:01 (human); experiment: cytokine release
T3 peptide: KALEHVVRV

[4] = biological target: T4, MAGEA4 (MAG-003 A6, alanine at position 6) peptide on HLA-A*02:01 (human); experiment: cytokine release
T4 peptide: KVLEHAVRV

[5] = biological target: T5, RABGAP1L (peptide RABGAP1L-001) peptide on HLA-A*02:01 (human); experiment: cytokine release
T5 peptide: FLLETVVRV

[6] = biological target: T6, MAGEA4 (MAG-003 A9, alanine at position 9; same residues as SEQ ID NO: 3) peptide on HLA-A*02:01 (human); experiment: cytokine release
T6 peptide: KVLEHVVRA

[7] = biological target: T7, AXIN1 (peptide AXIN1-001) peptide on HLA-A*02:01 (human); experiment: cytokine release
T7 peptide: ILDEHVQRV

[8] = biological target: T8, ANO5 (peptide ANO5-001) peptide on HLA-A*02:01 (human); experiment: cytokine release
T8 peptide: IVMEHVVFL

[9] = biological target: T9, TPX2 (peptide TPX2-001) peptide on HLA-A*02:01 (human); experiment: cytokine release
T9 peptide: KILEDVVGV

[10] = biological target: T10, SYNE3 (peptide SYNE3-001) peptide on HLA-A*02:01 (human); experiment: cytokine release
T10 peptide: KLLDLQVRV

[11] = biological target: T11, MIA3 (peptide MIA3-001) peptide on HLA-A*02:01 (human); experiment: cytokine release
T11 peptide: KVLDKVFRA

[12] = biological target: T12, HERC4 (peptide HERC4-001) peptide on HLA-A*02:01 (human); experiment: cytokine release
T12 peptide: KVLEILHRV

[13] = biological target: T13, PSME2 (peptide PSME2-001) peptide on HLA-A*02:01 (human); experiment: cytokine release
T13 peptide: KVLERVNAV

[14] = biological target: T14, MAGEA4 (peptide MAG-003) peptide on HLA-A*02:01 (human); experiment: multimer staining
T14 peptide: KVLEHVVRV

[15] = biological target: T15, MAGEA4 (MAG-003 A7, alanine at position 7) peptide on HLA-A*02:01 (human); experiment: cytokine release
T15 peptide: KVLEHVARV

Measured: binding result

B1: R20P1H7 (TCR, V domains shown)
Valpha: EDQVTQSPEALRLQEGESSSLNCSYTVSGLRGLFWYRQDPGKGPEFLFTLYSAGEEKEKERLKATLTKKESFLHITAPKPEDSATYLCAVQGENSGYSTLTFGKGTMLLVSP
Vbeta: EAQVTQNPRYLITVTGKKLTVTCSQNMNHEYMSWYRQDPGLGLRQIYYSMNVEVTDKGDVPEGYKVSRKEKRNFPLILESPSPNQTSLYFCASSLGPGLAAYNEQFFGPGTRLTVL
recognises: [3] | [4] | [6] | [14]
not listed: [15]
no recognition: all other assays above

B2: R10P2G12 (TCR, V domains shown)
Valpha: AQKVTQAQTEISVVEKEDVTLDCVYETRDTTYYLFWYKQPPSGELVFLIRRNSFDEQNEISGRYSWNFQKSTSSFNFTITASQVVDSAVYFCALSEGNSGNTPLVFGKGTRLSVIA
Vbeta: DVKVTQSSRYLVKRTGEKVFLECVQDMDHENMFWYRQDPGLGLRLIYFSYDVKMKEKGDIPEGYSVSREKKERFSLILESASTNQTSMYLCASSLSSGSHQETQYFGPGTRLLVL
recognises: [4] | [15] | [6] | [14]
not listed: [3]
no recognition: all other assays above
